Here are results for four molecules from publication PMC2690451 (The EMBO Journal, 2009).

The data set “SEC” deals with the molecule itself. The experiment in a line: SEC. (In gel filtration, larger molecules generally elute earlier.)
The target of a further data set is T1, MBP-RacA (B. subtilis, UniProt P45870 1-184).
T1 sequence: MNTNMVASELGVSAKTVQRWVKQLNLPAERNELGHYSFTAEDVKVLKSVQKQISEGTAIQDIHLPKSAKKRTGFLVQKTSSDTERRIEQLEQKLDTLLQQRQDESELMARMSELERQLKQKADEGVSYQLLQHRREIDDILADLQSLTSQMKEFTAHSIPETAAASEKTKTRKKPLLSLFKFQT
The experiment in a line: density gradient flotation with liposomes.

B1: ΔC-DivIVA-MBP (domain or fragment)
chain: MPLTPNDIHNKTFTKSFRGYDEDEVNEFLAQVRKDYEIVLRKKTELEAKVNELDERIGHFANIEETLNKSILVAQEAAEDVKRNSQKEAKLIVREAEKNADRIINESLSKSRKIAMEIEELKKQSKVFRTRFQMLIEAQLDLLK
As to B1, the binding result in the data set “SEC” is “binds”.

B2: ΔN-DivIVA-MBP (domain or fragment)
chain: RKKTELEAKVNELDERIGHFANIEETLNKSILVAQEAAEDVKRNSQKEAKLIVREAEKNADRIINESLSKSRKIAMEIEELKKQSKVFRTRFQMLIEAQLDLLKNDDWDHLLEYEVDAVFEEKE
For B2, the binding result in the data set “SEC” was “binds”.

B3: DivIVA (natural protein)
chain: MPLTPNDIHNKTFTKSFRGYDEDEVNEFLAQVRKDYEIVLRKKTELEAKVNELDERIGHFANIEETLNKSILVAQEAAEDVKRNSQKEAKLIVREAEKNADRIINESLSKSRKIAMEIEELKKQSKVFRTRFQMLIEAQLDLLKNDDWDHLLEYEVDAVFEEKE
Regarding B3, the binding result in the data set with MBP-RacA is reported as “binds”.

B4: DivIVA-MBP (natural protein)
chain: B3 chain
For B4, in the data set “SEC”, the binding result was “binds”.
